Experimental findings from patent publication US11434503 are described below.

The data set concerns piggyBac transposase wild type (Trichoplusia ni). In words: cell_activity. The settings on record: yeast excision assay; reference.
Sequence of piggyBac transposase wild type (Trichoplusia ni) (chain, as listed by the source): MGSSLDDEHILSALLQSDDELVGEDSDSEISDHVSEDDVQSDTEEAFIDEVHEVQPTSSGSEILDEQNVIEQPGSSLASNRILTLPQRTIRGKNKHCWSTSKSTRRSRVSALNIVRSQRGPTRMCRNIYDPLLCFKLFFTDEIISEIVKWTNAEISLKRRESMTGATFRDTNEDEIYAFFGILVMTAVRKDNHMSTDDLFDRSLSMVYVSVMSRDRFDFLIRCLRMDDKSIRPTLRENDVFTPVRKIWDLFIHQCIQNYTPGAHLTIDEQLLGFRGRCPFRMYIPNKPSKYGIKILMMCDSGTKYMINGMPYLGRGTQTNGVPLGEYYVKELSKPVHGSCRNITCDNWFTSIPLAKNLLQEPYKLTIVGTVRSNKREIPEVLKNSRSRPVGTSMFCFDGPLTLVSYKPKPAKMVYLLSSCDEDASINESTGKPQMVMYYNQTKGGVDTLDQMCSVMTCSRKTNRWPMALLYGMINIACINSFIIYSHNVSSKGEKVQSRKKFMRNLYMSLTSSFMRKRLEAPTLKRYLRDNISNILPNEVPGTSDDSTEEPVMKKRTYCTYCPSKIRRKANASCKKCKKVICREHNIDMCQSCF

Regarding “piggyBac transposon ura- to ura+ excision cassette in yeast”, the activity (fold (normalized)) is 1.
